Test results: a protein production outcome set (Wang et al. 2014)

Assay: label from the status in PepcDB records

Sequence	protein production
MRLEKGMPLKRQIRLKTAIILPFVLTFLFMILAMAAVQTYRYEQTVKELSSKKLSYLTDSISQRLSDFLNRPFFANQMIAYNVGFHHLYQLNDVSRIEDFIRAAANPIGNNIQQIDVVGFGGVNGEYVGLRRDAPEQYSLMLKDARTDDKLVIYQTATKNDQLRTVIDNYDPRVRPWFAPVAQKPSPQWSSVYTNMDEKQEITLSALSPVFQDKRFIGVMVSDVKLNTFNQFLSELKQRMNADVYVMDKQHRLIAHSGEGSVVSWGTPLSPKGERLFASENRNPIIRSSAEQLDLQGLNVGTFTTYVNQQRYFNQASAFTDQYGLTWYISVSIAEGDLLGSLPENQKTSWAIGLLVSLVGLGLGLMALNRVANPIISTASAARQLANGDWTASMPKPGKIYETSLLVQAFIEMTNSLKASFKALRSQLVYDSLTQLLSREGLVEHCHQIPQLNGGLILIGIDKFRDINDSLGHHQADQLLVAIAQRLKVTFPEPALIARIGGDEFAIYLPDVNQQDDLKSVATDILKLFASPFSMPSDNIAVNVSIGIVYLEEPNMTVWLRNGSIALSNAKAEHTHISFYSPEMANASRKRMLMVTQIKLALDNQEFVPFYQPIVDLNSGEVLGAEALARWISPEFGLIPPMDFIPIAEESGLINAIGEQILRQACADTVRGIAENKWPSTFHMHVNLSVNQLSHPDFIAQLHSVLDESGLQPTNLTLEITESRIVDNDPVILHNMLELKKARIHIAIDDFGTGYSSLAYLHKLPFDCLKIDREFVSQLNAYNIENSVVAAIVNMTRGFKVELVAEGIETQEQVDLLNQLGCPRGQGFLFSKPMAYQDWPTDLVNMKQS	failed
MRLIRSVLCSSSAGFGQGFCSPSLRRHLSARFPRGHGNALANFSSCARSRVHAYSSASSATSVGVPVAKMRFIDIGANLLDEMYTGQYNDKPYHPPDLSAVLERAWAAGLEKLMITAGSLKEARAALELAKTDERLYCTVGCHPTRCKEFEDHPGGPEAYLQELLEVLKEGQALGKVVAVGECGLVATDYERLHFCDADTQKKYFEAQFRLAKESGLPMFLHLRAAADDFLDITGRHLGDFPRGGVVHSFDGTAEEAARVLAVPQLAIGINGCSLKTDDNLAVVGGLPLERIMLETDCPWCEIRPTHAGRKHVSAEALAGVTGAKDRKKFMPGCQVKSRNEPANIRQVLEVVAGVKGRTDLEAVADVIFGNTERMFFPTA	failed
MRLLAILILCILVAACDRQAATEELTEARSAFANREWNDAERLLEGYLRRNPEGAQRWEAWNLLVEVAHRVRNDERATVELLETMYLENGSNPERAYDILTRLGELLEAGRDFRRAAEVWPRVLELPGLTPDTRALVSRRLARILVMQRRFPEAEERLKACLDTEGLSTEGRAGCLYDLADLNVASEHLDVAVDLATTLVGLEGLTPELRSQAGFLLADALEQRGRFAEALERFEALRGVYPNDMVIDTRVRHLKGRLGRK	failed
MRLLAKIICLMLWAICVAEDCNELPPRRNTEILTGSWSDQTYPEGTQAIYKCRPGYRSLGNVIMVCRKGEWVALNPLRKCQKRPCGHPGDTPFGTFTLTGGNVFEYGVKAVYTCNEGYQLLGEINYRECDTDGWTNDIPICEVVKCLPVTAPENGKIVSSAMEPDREYHFGQAVRFVCNSGYKIEGDEEMHCSDDGFWSKEKPKCVEISCKSPDVINGSPISQKIIYKENERFQYKCNMGYEYSERGDAVCTESGWRPLPSCEEKSCDNPYIPNGDYSPLRIKHRTGDEITYQCRNGFYPATRGNTAKCTSTGWIPAPRCTLKPCDYPDIKHGGLYHENMRRPYFPVAVGKYYSYYCDEHFETPSGSYWDHIHCTQDGWSPAVPCLRKCYFPYLENGYNQNYGRKFVQGKSIDVACHPGYALPKAQTTVTCMENGWSPTPRCIRVKTCSKSSIDIENGFISESQYTYALKEKAKYQCKLGYVTADGETSGSITCGKDGWSAQPTCIKSCDIPVFMNARTKNDFTWFKLNDTLDYECHDGYESNTGSTTGSIVCGYNGWSDLPICYERECELPKIDVHLVPDRKKDQYKVGEVLKFSCKPGFTIVGPNSVQCYHFGLSPDLPICKEQVQSCGPPPELLNGNVKEKTKEEYGHSEVVEYYCNPRFLMKGPNKIQCVDGEWTTLPVCIVEESTCGDIPELEHGWAQLSSPPYYYGDSVEFNCSESFTMIGHRSITCIHGVWTQLPQCVAIDKLKKCKSSNLIILEEHLKNKKEFDHNSNIRYRCRGKEGWIHTVCINGRWDPEVNCSMAQIQLCPPPPQIPNSHNMTTTLNYRDGEKVSVLCQENYLIQEGEEITCKDGRWQSIPLCVEKIPCSQPPQIEHGTINSSRSSQESYAHGTKLSYTCEGGFRISEENETTCYMGKWSSPPQCEGLPCKSPPEISHGVVAHMSDSYQYGEEVTYKCFEGFGIDGPAIAKCLGEKWSHPPSCIKTDCLSLPSFENAIPMGEKKDVYKAGEQVTYTCATYYKMDGASNVTCINSRWTGRPTCRDTSCVNPPTVQNAYIVSRQMSKYPSGERVRYQCRSPYEMFGDEEVMCLNGNWTEPPQCKDSTGKCGPPPPIDNGDITSFPLSVYAPASSVEYQCQNLYQLEGNKRITCRNGQWSEPPKCLHPCVISREIMENYNIALRWTAKQKLYSRTGESVEFVCKRGYRLSSRSHTLRTTCWDGKLEYPTCAKR	failed
MRLLFSFSCRRRWRERERLRRMREIKMIKLPHKKPIIFFCQLFLIATLIIACHQTTIHTSTNTCTPNYNPNQDYFPNKIKITHARGLAVEYHKHYKVVTIKNPWQNAKTQFQYVLVQCGTPTPQGFKQAQVITVPIHSIVSLSTTHLPHLAKLGVVDKLIGISNSKQVNTPDVVERIKAGKITQVGNNSNVDIERLLELNPDLVTTFGTGNSQTDSYSKLTEAGLKVGINAEYMEDTPLGRSEWLKFTALFFNQEEKAEKIFAEITDKYEQVAQKVKSVKNRPTVFVGFNFKGTWFMPGGNSYVAKYLADAGGDYLWSNEQSAGSLPLSFEVVLERATNADYWLNFSQSWQSLKDLLAEDNRYADFKSVKIGNLYNNNARVNESGGNDYWEGGISNPDIVLSDLIRILHPEILPNHQLFYYHKILK	failed
MRLLVAFAVIYFISISPVCAENTASTINIPTPAIESPLASKSLLLDISLIGQEKLVTVGQHGHILLSNDGKKWQQANVPVQVTLTNVFFLNEQLGWAVGHDATILHSQDGGLNWQVQQYLPLLEKPLFDIYFKNPQQGIAVGAYGQVFRTNDGGSTWQNEFHQEILLADDVEYLNELKAEDEAAYLDEITFILPHFNRLVQDGGSLFLLGETGLLAKSDDFGLTWQQFDNFYQGSFFSLARTKTGNVLVAGLRGHVFRSLNHGSQWDEVPTNTTALLNDIVFANDERIFILGNNGMLLISTDDGESFSKIPQQDGKTLIAGVWFKGQLIAVSDVGIKVVDLSQELEHHHHHH	failed
MRLTGEIMKIITCFKLVPEEQDIVVTPEYTLNFDNADAKISQFDLNAIEAASQLATDDDEIAALTVGGSLLQNSKVRKDVLSRGPHSLYMVQDAQLEHALPLDTAKALATAVEKIGFDLLIFGEGSGDLYAQQVGLLVGELLQLPVINAVSAIQRQGNTLVIERTLEDDVEVIELSVPAVLCVTSDINVPRIPSMKAILGAGKKPVNQWQASDIGWSQSAPLAELTGIRVPPQTKRKHIILDNDSPEAIAELAEHLKKALN	failed
MRLVVLSDIHGNLGAFEAVLADIATQDVDDIISLGDNVGYGPDPGPVLRLLRQRGIDSVLGNHEAAIADRRRRRRFNSQSREALDLTEAWLDADGRACIASMPPVLLRHGCRFVHGMPPDSPFTYLFEFMGRRLPKVFTLFAEALCFVGHTHDLEVLRCDETGAVASVLLPTASPDVAGQMPPGPLPGPSPDATLATSPGAQPEGLTLSTASPRVTVQTLVLDAGARHLVNVGSVGQPRDGDPRAKYVVWDDTARTLTVRRVAYDVAAAVRRFAEAGVAQRYIDRLG	failed
MRLYVMLLSLSLIWGFSFVFIEHLLGIVGVWGTVVVRCFAGAIILLPILLMRRKLFYRPAPWKALMIVGIFNAGLPWGLIALSQTEIYSSTAAVLNALTPLFTGLIGFLLYSNALSRQQWGGIVLGFSGVVVLTGFQLQLLAPEHFVGVGTMILATICYGFASQYVKRHLHDTDVVLITTFSLLFGGLVGLIGMWITDSLHVVRVPLTIDWLSLISIIGLGCLGSGMAHLLYYDLMKKGGPEFATTVTYLIPMTAIIWGKLFLDELITKNIVIGMLMILMGVYFTSRKRNVCSKANEDSNKGELA	failed
MRMIIAFLLGCLGMFLTTGCAFVSVPLMSAPQPLAEQVLEGEGTKKILIVDISGAIGDQAKGGGLLSRGTPSTVSLVREVLLKAERDPKVAGLILRINSPGGTVTASDIIRHDLLAFKERRNLPVSACIMGIGASGGYYVATAADGITAHPTALTGSIGVLLMTFNVEGLLGKVGVEEKTIKSGGKKDLLSPFRRATPEEERLVQGVIDQFHGRFVDVVQARPGNRLSRHDLLTLADGRIFSAADALAAGLIDRIGYLDDVIASLRDRIGDPDARVVTYFRPGSYQGSIYAESAAEPSMADLLGGFDMTGGGQFMYLWRPW	failed
MRMRSGTAVAGVAALAVAGMALTAAFEPVWAHGPTRQKVRESIEINAAPAKVWAVIGNFQDMSWLPPVTKTEGEKGNEIGATRRLTLTGGATVDEELYKFDAAAMTYSYRITAVDVKVLPVTNYSSTLTVTPSADGKGATLEWAGAFYRGFPNNDPPPELSDEAAKTAVSGLYKAGLEALKKKIESGS	failed
MRNCIFYSLVLALLFLIGSCKDSDDNKTTGATYDPNQPVTVESFMPVEGKLREKVIVKGSNFGTDKSKVKVYFVDEAAERLSTVIGIDNNTLYCLAPRQLPGGNRIKVIVDGKEVTTDGTFKYEQAQNVSTISGSASKDGNDDGDLASAKFKYMWGIAAVGNNTVLAYQRDDPRVRLISVDDNKVTTVHPGFKGGKPAVTKDKQRVYSIGWEGTHTVYVYMKASGWAPTRIGQLGSTFSGKIGAVALDETEEWLYFVDSNKNFGRFNVKTQEVTLIKQLELSGSLGTNPGPYLIYYFVDSNFYMSDQNLSSVYKITPDGECEWFCGSATQKTVQDGLREEALFAQPNGMTVDEDGNFYIVDGFKGYCLRKLDILDGYVSTVAGQVDVASQIDGTPLEATFNYPYDICYDGEGGYWIAEAWGKAIRKYAVE	failed
MRNETGGTMVVDLQTDPYNNIHSRHNLSYDLSEGPKPRPKFGNISKTDHDEIFPPDDPIIINSNVTHQRFSSVSASTMSSGPASGEGSPCVMSPWARVSPPWGADFNEDNVLETNGLIGSIVRKEGHIYSLAASGDLLYTGSDSKNIRVWKNLKEHAGFKSSSGLIKAIVIFGDRIFTGHQDGKIRIWKVSKRKPGKHKRVGTLPTFKSMVKSSVNPKHFMEVRRNRNSVKTKHNDAVSSLSLDVELGLLYSSSWDTTIKVWRIADSKCLESIHAHDDAINSVMSGFDDLVFTGSADGTVKVWKRELQGKGTKHTLAQVLLKQENAVTALAVKSQSSIVYCGSSDGLVNYWERSKRSFTGGILKGHKSAVLCLGIAGNLLLSGSADKNICVWRRDPSDKSHQCLSVLTGHMGPVKCLAVEEERACHQGAKASVAEGDRKWIIYSGSLDKSVKVWRVSERMATWKEMDEPAASSERKSSSSPHEGSGAWSSRNVEK	failed
MRNLKDRVLNSLKGNKKDIKISVVVPTYNTELEGLKNLMASIDKQTMNPDEYELVFVDDGSTTDTYERLQEFAETRPNMTVKQIENSGWGSRPRNIATKMAKGEYILYLDHDDTVFPETFERVYNFGKENNLDVVSGKEVRTNGWSWGWKQFSENNPHAEEMGIECLLPMTPHKFYKREFLLENDITFDDGARVLWEDVYFNSKAFIHGAKVGILADYPTYYWIATGANNSSSFGRDPHEKWNQINKLFNFFKDNIKEQRDLDFMLTHWYRSRVLGILGQWLLKNNNERIDIEFNYAKKLAEELIPAYISENLDKNNQVKDYLLRQGDLDSLKKLAQIDAGITALSYVEDAYFKEDKLFFKTSTKMTYEDKEDFFIEKTADRMERILPEEIKSKLPKEFFDYSDDLAEFTYEPSIKGRNSRATWKIDGSTSNVEVVNKKANLYKIEGEMSFSVQINDYILDAADKKQPWDIATRFTGLGYTSHRALTIGKILIKTALINNKTMIVYKNASGLISLDVGSSVRSIVEDSGVKREQILIDKTSGKVTIPLNEIHVFGESLIEGNAELKPVGISDADPINVKAKLIGEANKARVEVLLGDEKLSGEYHLVTNIQGKKDKQQIKITL	failed
